Each block holds one compound with its values, some of them ahead of it.
Columns and labels:
TRPC4 [1] = target: T1, TRPC4 (Danio rerio, UniProt U3N7D8); experiment: cryo-EM structure at […] Å; also dose-dependent inhibition of (-)-Englerin A currents in TRPC4-expressing oocytes; assay type: binding
T1 construct: gene trpc4b; residues 2–915
T1 sequence (U3N7D8 2-915): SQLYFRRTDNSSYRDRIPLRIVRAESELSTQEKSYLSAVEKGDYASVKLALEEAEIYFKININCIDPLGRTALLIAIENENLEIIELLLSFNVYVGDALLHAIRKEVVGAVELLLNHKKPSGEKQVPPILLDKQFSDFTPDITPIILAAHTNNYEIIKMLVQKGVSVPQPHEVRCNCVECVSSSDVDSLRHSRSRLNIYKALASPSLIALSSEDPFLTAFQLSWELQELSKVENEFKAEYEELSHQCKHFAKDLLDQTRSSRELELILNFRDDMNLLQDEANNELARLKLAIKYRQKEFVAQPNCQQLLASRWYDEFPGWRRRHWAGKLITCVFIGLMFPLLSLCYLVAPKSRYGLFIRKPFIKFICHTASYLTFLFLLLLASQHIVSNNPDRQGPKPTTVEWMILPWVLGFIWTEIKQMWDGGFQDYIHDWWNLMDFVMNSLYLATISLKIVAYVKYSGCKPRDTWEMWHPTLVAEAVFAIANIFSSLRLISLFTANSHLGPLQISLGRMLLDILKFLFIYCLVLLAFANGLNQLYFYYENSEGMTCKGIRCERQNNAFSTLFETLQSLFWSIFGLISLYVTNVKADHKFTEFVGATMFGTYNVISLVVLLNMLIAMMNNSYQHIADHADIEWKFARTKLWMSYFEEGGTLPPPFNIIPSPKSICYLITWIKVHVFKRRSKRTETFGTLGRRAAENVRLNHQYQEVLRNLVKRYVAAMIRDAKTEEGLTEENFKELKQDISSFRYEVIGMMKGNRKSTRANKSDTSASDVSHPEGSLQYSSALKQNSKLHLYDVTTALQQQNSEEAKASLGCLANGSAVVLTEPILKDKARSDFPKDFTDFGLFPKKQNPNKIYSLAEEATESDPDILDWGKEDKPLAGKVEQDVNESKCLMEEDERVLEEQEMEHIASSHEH

TRPC4 [2] = target: T1, TRPC4; experiment: as above; assay type: binding; remark: listed apart in the source
TRPC4 [3] = target: T1, TRPC4; experiment: as above; assay type: binding; remark: listed apart in the source
[4] = target: Zebrafish TRPC4 (Danio rerio TRPC4, residues 2-915) (Danio rerio (zebrafish)); experiment: cryo-EM structure; TRPC4-CaM complex in LMNG, 10 mM calcium chloride, 10 µM CaM added; 3D sorting without symmetry for the stoichiometries
[5] = target: Zebrafish TRPC4 (Danio rerio TRPC4, residues 2-915) (Danio rerio (zebrafish)); experiment: cryo-EM structure; TRPC4 alone: apo in LMNG, and in amphipols with 100 µM GFB-8438, GFB-9289 or GFB-8749; C4 symmetry

Compound: O=C1CN(c2cn[nH]c(=O)c2Cl)CCN1Cc1ccccc1C(F)(F)F [GFB-8438]
cryo-EM structure at 3.6 Å; also dose-dependent inhibition of (-)-Englerin A cur (TRPC4 [1]): The shape of the density clearly indicated that it corresponds to the bound inhibitor.

Compound: O=C1CN(c2cn[nH]c(=O)c2Cl)CCN1CC1CCC(F)(F)CC1 [GFB-8749]
cryo-EM structure at 3.8 Å; also dose-dependent inhibition of (-)-Englerin A cur (TRPC4 [2]): an extra density was observed inside the VSL domain region of GFB-8749-bound TRPC4

Compound: O=C1CN(c2cn[nH]c(=O)c2Cl)CCN1C1CCCCC1 [GFB-9289, 4-chloro-5-(4-cyclohexyl-3-oxopiperazin-1-yl)-2,3-dihydropyridazin-3-one]
cryo-EM structure at 3.2 Å; also dose-dependent inhibition of (-)-Englerin A cur (TRPC4 [3]): we found an extra density inside the VSL domain region of GFB-9289-bound TRPC4

percent of TRPC4 channels with four CaM bound (fully saturated) [4]: 20%
percent of TRPC4 channels with one CaM bound [4]: 13%
percent of TRPC4 channels with three CaM bound [4]: 31%
percent of TRPC4 channels with two CaM bound [4]: 35%
stoichiometry N (CaM per TRPC4 tetramer) [4]: < 4
Compound: Mouse calmodulin (CaM) (from UniProt P0DP26 1-149) (natural protein)

stoichiometry N [5]: 4
stoichiometry N [4]: 4
Compound: Zebrafish TRPC4 (Danio rerio TRPC4, residues 2-915) (natural protein)
